Test: label from the status in PepcDB records

| Sequence | protein production |
| --- | --- |
| MMEQALQTITLSCEWSEERQCFWLSSSSPATSWAPLVFAWHEETFYGTLIDSVIVNGREVVQLSPWQALTFFASRPSISFVAIEWKDEFTAQLETWARQIWDDLRERRFRPDFAAWKERRSTLWSEAQHTRWLGLDADPHPFITTWRSLAIADWLSRDPELRDIWQEIIKDYPAILARNDQWISGEDDWLEQIGWLGERPLFTVGLRLVEPPEDGDSWTLETVLIALDDSVVVPVDEIPRAWRPYEQSIARAIRRIETIIPWLGGNGELRNELSDDEAWLFLSEESLKLTEAGVRLLLPDWWHNIRQAQLSIKAKLSPSVHAESLFGLERLSDFDWRVATNGIELTEEEFAAIAEQKRRLIRLRGQWIALDPALVRRAQTLMEKAKQEGVPIHEIVAQTLLAEANARDEATDEHIPIHIDVQNQFRAFIRQLHNIDELPTAVVPPSFHGTLRPYQQRGVDWLAFLRRFGFGACLADDMGLGKTVQLLAYLAYVKETEHPDTPALLICPTSVIGNWQKECARFTPELRVYTHHGPNRAKHEAFLQTAGRADLVITSYSLAHLDGDDLKQLHWHTVCLDEAQNIKNAQTKQARAIRRLRAKHKIALSGTPVENRLNELWSIFHFLNPGYLGSATEFERRFAGPIEKEGDAHKKAALQALIRPFLLRRTKTDEAVALNLPDKLEQKEYCPLTAEQAALYEQLVNDTLERAKAASPFARRGLILQMLNGIKQICNHPALYLKERSPRQLVERSHKLEKLVELVEQIRANDESCLIFTQYVRMGEMIQELLSDLFDEPVLFLNGSVPKPTRDRMVDEFQARKAPIFLLSLKAGGTGLNLTAANHVIHFDRWWNPAVENQATDRAYRIGQTKFVHVHKLITTGTIEEKIDEMLEQKQALADVITEGETWITELSDDELRDLLTLSAAAKGGA | failed |
| MMGNDSYSSNRGSSRDVLSFLQNFLGGFYAKYGIEVKLVGGLSLSKFYYAFDAERNQFLARHFLPVLSYIKKDFNARAALGIVNVDIYEPGFNFIFGLAHPGLKVAVVSLYRLYPEFYGNPPDRKLLKERALKEVMHELGHVFGLGHCPNPKCVMHFSNSIIDTDIKSWMYCESCLRKLEKNLARSHVLEHHHHHH | failed |
| MMIMERHYTLKEASKILGVSIKTLQRWDKAGKIKCIRTLGGKRRVPESEIKRILGIKDKEQRKIIGYARVSFNAQKDDLERQIQLIKSYAEENGWDIQILKDIGSGLNEKRKNYKKLLKMVMNRKVEKVIIAYPDRLTRFGFETLKEFFKSYGTEIVIINKKHKTPQEELVEDLITIVSHFAGKLYGMHSHKYKKLTKTVKEIVREEDAKEKE | failed |
| MMIMKRLLFLVSVCSLCMVGNSQNYQPEKHAVVKSDRGDGRLLSTYAIVHEMLKDTHPQYAYRSGMSAQEFTQWQDGVRAAMVEIMKFPEIKRQPSPVCVKTEKKEGYILEKWEFYPFPKSVSTFLVLKPEHLKGAVPGVLCIPGSGRTKEGLVGEPGICDKLTEDYNNPKVSMALNMVKEGYVAVAVDNAAAGEASDLECYDKGWNYDYDVVSRFLLELGWSWLGYTSYLDMQVLNWMKAQSYIRKDRIVISGFSLGTEPMMVLGVLDKDIYAFVYNDFLCQTQERAVVMTKPDKENRRPFPNSIRHLIPGYWRYFNFPDVVASLAPRPIIFTEGGLDRDFRLVQSAYAASGKPENAEFHHYPKFADKAVRKDVEHLDEGLDSKTYFEAVNVDPPSHYFKNELVIPWLRKVLK | failed |
| MMIQGHLFHQDRKRTFRIVEPFGSTTDALIYFHGSQQSGSVGRSFTNRTFDPLPFMVVYPDGVDQHWNDARLGLDENTRHLGIDDVGFFVKLATHLGNTYGIKRIFIVGYSNGGQMVLRLMHEVPKMLSGAATIASNMPVAENTLPQVKTFKTHPVPYLAMAGTADTFSPYEGGDAGIGREHRRGVGMSAFDSAAYIAARNGLTEHRHDVIDDVVSIDTWDGENPVEFWTLNGIGHLVPSGKTYPEFLGPSTTSVIAAEEIGKFFDGVRRR | failed |
| MMKAEELNKGFVNEIIEAGTPVPGEKEVASLKSCYQCGTCTGSCPSGRRTAYRTRKVIRQALLGIDSVLDSDDIWKCTTCYTCYERCPRDVKVTEIIKTIRNLAAKKGNMATPHKMTAVYVLKAGHAVPANDDTAKLRKSIGLAEKAPIAQFSQKDMDEIRTIAKNLKFDELIGFDWKTMGLKQ | failed |
| MMKCTALIVTFNRLEKLKKSVRETVKAGFSSIVIVNNGSSDGTREWLSSLSEPGITILNLKDNLGGAGGFKVGSQYICSYSNADWVFFYDDDAYPEINILKHFSLLDTSRYRIFASRVQDTYGRSCRMNLPFIRVPSTVFETIYYAMRPERFSPVRTQVTDVQTVSFVGMIIDRKVLNNHLNDIHDELFLYYDDFFFGYKLVLSGQKIRYSPEIKFIHDISIHGKCICPEWKVYYLCRNLLLLRKLLPVPRIFSVLSIVLRLSKYLAILPWQRKKFRYLYFIWQGILHGLKGISGKYH | failed |
| MMKDMTTGNPTKLIFLFAMPMLIGNLFQQFYTMIDAVIVGKFVSVDALAAVGATNSVNFFMISLIIGLMSGISVVVAQYFGFKDYDRLKDVIATATYAVVFSAIILTVAGVLLAKPLLILLRTPANILDDSTIFLTTLFIGILPMSLYNGMAAILRALGNSITPLIFLILSSLMNIALDFLFVVYMDMGVRGAAIATVLSQTAAAIAVIYYAYRHVPFMRIERAKFKLSTPLLKEMVRIGLPSGLQGSFISIGNMALQSLINGFGSSVVAAYTAASRIDSLTYQPGIAFGAASSMFAGQNIGAGKIDRVREGFWSGIKVVTAISIGITILVQLFARQFLLLFVDSSETEVINIGVSYLLIVSLFYVVVGILFVVRETLRGTGDAMVPLAMGIFELVSRLVIGFVLSLYIGYVGLWWATPVAWITATILGVWRYKSGAWQKKAVIRRK | not failed |
| MMKKLTALFVASTLALGAANLAHAAETTTAPSDSKPMMMHHKGGPGQHDMMFKGLNLTDAQKQQIRDIMKSQRENMKRPSLEERRAMHDLIASDTFDKAKAEAQIDKMEAQHKAMALSRLETQNKIYNILTPEQKKQFNANFEKHLTERNAPAGKMPAPAE | failed |
| MMKKMMVLYNETSGSSESKEIAERFKKAAEARGEAVILQPSNPDIDPEEMRKNAKENQVGVLVVIGGDGTIHHAVQNFKDTIRDYQIGIIPGGTVNNFARVLSIPLKEEDAFETILAGQTTPVDFGMVNQD | failed |
| MMKLVCPSYIAKRKDSLAFKLFSYMTAIVISILLVQALAEQALVKAMLKVPNSVKMEMLDLAHQANVLIEHGDMDELADWANAQQFYLFVLNEQLQPVTHRLMHPHFEFKLQFKRSIDDQLEDKVNRPIISIPLVQQHNLVIQLPHRLHPANDFILYFSIIKVVIAAVILALFSLLMARNLQQPLDRLREASKKLSNGDFNVSVVQELKSNTREFNELAQDFDHMTKEIHSLAEKQRLLIRDVSHELRTPLARQNLVLHLLRKRVGESEQELVTRLEDEAKELNHLISDILEFSRLENARYDKETKRSDLEVLLAPQVERCKIDLRESQSIVFISRVTEPRAYCEDTLVVRCLNNLVGNAIKYAGEDARIEVTLTNQEINGQAYLVMSVSDDGPGIPENKLSDIFNPFTRLDASRDKKLGGYGLGLAIVKESMRMMGGSVNAENRSQGGLTVSLVFRQ | failed |
| MMMLPEACIANILAFTSPADAFSSSEVSSVFRLAGDSDFVWEKFLPSDYKSLISQSTDHHWNISSKKEIYRCLCDSLLIDNARKLFKINKFSGKISYVLSARDISITHSDHASYWSWSNVSDSRFSESAELIITDRLEIEGKIQTRVLSANTRYGAYLIVKVTKGAYGLDLVPAETSIKSKNGQISKSATYLCCLDEKKQQMKRLFYGNREERMAMTVEAVGGDGKRREPKCRDDGWMEIELGEFETREGEDDEVNMTLTEVKGYQLKGGILIDGIEVRPKT | failed |
| MMMLPEACVANILAFTSPADAFSSSEVSSVFRLAGDSDFVWEKFLPSHYKSLISQSTDHHRIFSSKKEIYRCLCDSLLIDNARKLFKINKFSGKISYILSARDISITYSDHASYCSWSNVSDSRFSESAELITTDRLEIKGKIQTTVLSPNTKYGAYLIMKVTNGAYGLDLVPAETSVKSKNGQNNKNTTYLCCLDEKKQQMKRLFYGNREERMAMTVEAVGGDGKRREPKARDDGWLEIELGEFVTREGEDDEVNMSLTEVKGYQLKGGIVIDGIEVRPIPLK | failed |
| MMNDYLNFLDGRVSVRRFDPDAVLPNDLIKDMLEHASYAPSGNNFQPWRVVVVKNKNKQEDLKKLAALQPQVATASAVFLLFGDENAYDLTWWQEFHVQKGIITKDEAAARAERIRQYFDLHPEDKETQGLRLDVGLFAMNLMQVVRVYGYDSVPMRGVDFDAIKTYLDMPNGWEPILMLPVGKALQAGNPHVRKSVAEFAEIIE | not failed |
| MMNNMDSIINYIYEGDYFIVTSHISPDGDNIGSTLSMYYTLKNLGKNVYYVLDDEAPLNLRFLVEGVKIYKSNEFNMKNYSLIALDCGDKMRICVSDEIKNNASKLICIDHHASNDSYGDLNYVDIDASSTCELVYNLLVRFQQIKDINIINEDIATCLYTGLVTDTGNFSYSNVHASSFEMAKNLLVLGAQKNTIIQNIYQSN | failed |
| MMNNSEGLKSFQQSLADLPQWVSERLLQQINQLTNYEPVIGIMGKTGVGKSSLCNALFAGDISPVSDVAACTREPLRFRLQVGDRYITLMDLPGVGESGARDTEYAALYREQLPRLDLVLWLIKADDRALTVDEHFYHQVIGEVYRHKVLFVISQSDKAEPTSGGGQLSTAQKQNISRKICLLHELFQPVHPVCAVSVRLQWGLKVMAERMIKCLPREATSPVVSQLHPSFRTTVVREQARSDFGETVGAVLDSISAFPLIPAPVRAVIQAVRTTVVSVARAVWDFFF | failed |
| MMNRLAVRIPTMHSFAWTAADAASRWRLLRISMLLQGFPRNPEPAVRAPDLWRTRVGGGSFGVLFLEAAEVPEALPMQGLSASLVLIAVLAVLAPVATRLLDRWVKVPIVVFEIVLGILFGPSVLGWVQSTPFTDTLADFGLAMLFFVAGNEIDFAAIRGRPIYRASAGWVISLAAGIGAGFVLGPSPEAAVIIGVALCSTALGALLPILRDAGASKSPIGVAATALGAAGEFGPLIAISLFFSGKQLGVASGVLLGFVLLTGVAIYLASQARHTLFHAQVTATLHTSSQFAMRSILLILSSLVVLSMVLGLDMLLGAFAAGVLWKVTIARAPVADRKVIETKIDAVAFGFLVPIFFIDTGIDFDLGALTSSPLTLAMVPLFLSLLLLIRGVPSLLATPPGSSRADKQALLLFGATALPIIVAVTTIGREHGYITSGISSALIGAGMLSVLLFPLLALRLLRRTEAADPKQRTPKA | failed |
| MMNRNLVVALAGNPNCGKTSLFNELTGSKQHVGNWPGVTVEKKEGKLKFEGREITIVDLPGTYSLGAYSEDEVVARDFILKDKPDVVINVVDACNLERNLYLTTQILETGAKVVLALNMMDEANTRNIDINIEKLQKSIGIPVVPTVATKKQGIKELVKNAIKLGDSESEELYTIDYGSDIQKEVDGIKAAIDEASVTLEYPKAWVSLKLLENDDYIRKYIDNSIKDDEVKHKVSEGIENLTSIIGYEPDAFIVDKRYELISKFVKNSVKKNEVQEESTSDKIDKVLTNKFLGIPIFAIIMFAVYQVSINFGNGTLSDLINDSLGQLGTNIAFTLDGFGVPKIIGAFVRDGVFAGVGSVLGFFPMILIMFFLISLLEDSGYMARAAYVMDRLMSAVGLHGKTAVSLIVGSGCNVAGIMSARTLESKKDRMIAILITPFISCPARLTVYGVFVGAFFAKQKLGIFSLGGIIIFLLYALGIFVAICAGKFFSSKVFEGETSYFVMELPPYRLPTLKGILIHMWEKSGHFLKKAGTIILGVCIIVWILADLPAGVEYGSKDSLLGIIGTFIAPIFKPAGFGSWQAGVALITGFAAKEAVVGTLGTIYGVNEGTQLFHAIHNTFTPLSAISFMIMTLLYVPCVATIGAVKSETNSNKWTVAVIIYTCVIGWVLATIFYQVGRLLGYV | failed |
| MMPDKKGYIIDIDGVIGKSVTPIPEGVEGVKKLKELGKKIIFVSNNSTRSRRILLERLRSFGLEVGEDEILVATYATARFIAREKPNAKVFTTGEEGLIEELRLAGLEIVDYDEAEYLVVGSNRKINFELMTKALRACLRGIRYIATNPDRIFPAEDGPIPGTGMIIGALYWMTGREPDVVVGKPSEVIMREALDILGLDAKDVAVVGDQIDVDVAAGKAIGAETVLVLTGVTTRENLDQMIERHGLKPDYVFNSLKDMVEALEG | not failed |

Reference: a protein production outcome set (Wang et al. 2014)
